According to the MegaScale stability set (Tsuboyama et al. 2023):

B1: EEHEE_rd4_0363 (parent)
chain: VTVDIKGMEYHFDNPEEAKKFAERMAKELGGELKVENGTLKVE

Variants of: B1
Assay: folding stability dG (cDNA display proteolysis); higher = more stable
Settings: PBS, room temperature

Folding stability dG [kcal/mol], by site and new letter:
H11: L 1.55; I 1.77; C 2.21; K 1.73; D 0.422; M 1.54; F 2.13; P 0.291; G 0.524; T 1.77; W 2.26; N 1.32; A 1.16; Y 2.36; V 1.84; R 1.87; S 1.33; E 0.894; Q 1.39
E16: K 1.33; R 1.27; W 1.98; T 1.7; N 1.41; H 1.63; L 1.65; V 1.74; C 2.17; P -0.084; Q 1.67; S 1.58; M 1.71; F 1.7; I 1.71; D 2.02; G 1.24; A 1.78; Y 1.79
F21: H -0.264; W 1.64; I -0.454; L -0.142; Q -0.803; V -0.636; A -0.089; M -0.083; E -0.293; C 0.708; N -0.807; Y 1.06
A22: N 0.039; I 1.5; L 1.48; F 1.23; E 0.571; S 0.388; T 0.578; R 1.05; D -0.23; W 1.53; Y 1.06; C 1.54; V 1.26; G 0.968; M 1.39; K 0.798; H 0.228; Q 0.746
N14: H 1.3; W 0.812; G 1.08; C 1.81; E 1.18; A 0.941; I 0.929; F 0.914; M 0.77; V 0.902; Y 0.952; S 2.11; D 2.33; T 2.07; L 1.02; R 1.15; Q 0.996; K 1.08
K19: T 1.71; M 2.67; W 3.27; E 1.32; G 0.835; Y 2.87; N 1.38; I 2.38; F 2.67; R 2.65; L 2.74; S 1.35; D 0.524; V 1.96; A 1.65; H 1.98; Q 2.17
M25: D 0.142; A 1.37; S 0.692; K 1.37; Q 1.05; H 0.844; C 2.19; L 1.45; Y 1.34; P -0.009; V 1.44; R 1.13; W 2.1; F 1.08; I 1.57; E 0.574; G 0.03; T 0.78; N 0.581
K20: Y 1.57; G 1.18; Q 2.01; S 1.95; R 2.18; D 1.7; W 1.67; I 2.08; N 1.77; H 1.53; M 1.88; T 1.67; C 2.28; A 2.42; V 1.73; F 1.62; P -0.999; L 2.06; E 2.08
E9: V 2.93; K 3.05; R 2.9; H 2.51; T 2.55; Y 2.6; W 2.25; S 2.32; D 0.904; L 3.44; F 2.66; M 2.92; N 1.71; Q 2.69; G 1.26; P 1.47; I 3.25
R24: K 2.01; P -0.281; G 1.29; W 2.34; T 1.75; Y 2.34; E 1.99; Q 2.04; L 1.99; V 1.35; D 1.68; S 1.72; A 2.11; F 2.28; H 1.94; N 1.55; M 2.11; I 1.5; C 2.83
F12: I -0.023; V -0.424; T -0.58; H -0.13; N -0.908; A -0.113; S -0.396; M 0.11; L 0.213; W 0.074; R -0.751; P -0.958; E -0.877; G -0.303; C 1.66; Q -0.27; Y 0.382; K -0.237
E23: L 1.89; W 1.4; V 1.55; Y 1.5; N 0.999; S 1.08; C 2.35; H 1.11; R 1.16; M 1.9; G 0.124; D 1.58; F 1.27; A 1.48; Q 1.65; T 1.31; I 1.87; K 1.34; P -0.639
K27: L 2.35; C 2.48; H 1.87; G 1.35; F 2.35; D 1.56; A 2.15; E 1.77; I 2.14
E17: W 0.794; L 1.31; C 2.09; M 1.39; G 0.569; K 1.16; D 2.08; S 1.38; A 1.7; N 1.11; V 1.17; P -0.343; Y 0.905; T 1.23; R 0.908; I 1.16; F 0.922; H 1.2; Q 1.5
D13: A 1.95; T 1.93; F 1.41; I 1.68; V 1.64; C 2.42; G 1.51; P 1.6; H 1.58; S 2; Q 1.73; M 1.68; W 1.58; N 1.88; K 1.82; E 1.9; Y 1.22; R 1.74; L 1.68
P15: K 1.45; S 1.64; Y 3.25; N 1.41; I 2.58; E 2.12; T 1.52; C 2.33; G 1.39; M 2.86; V 2.17; F 3.22; W 3.73; H 2.05; R 1.45; D 1.58; L 2.6; Q 1.75; A 2.19
Y10: R 0.383; I 1.05; M 0.781; T 0.289; W 1.56; Q 0.239; S -0.033; G -0.912; N -0.275; A 0.161; V 0.768; K 0.191; F 1.99; P -0.055; E -0.466; D -0.462; L 0.741; C 1.77; H 0.908
A26: W 1.48; M 1.55; G 0.834; P -0.451; F 1.13; L 1.64; R 1.24; I 1.6; T 1.23; Q 1.3; K 0.954; V 1.66; S 1.3; H 0.962; C 2.06; D 0.592; Y 0.983; N 0.898; E 0.931
A18: S -0.064; F 0.719; K -0.683; M 0.379; T -0.52; Q -0.376; G 1.46; H -0.269; W 0.824; C 1.03; V -0.372; I -0.262; R -0.072; E -0.431; Y 0.753; L 0.471
